Molecular target: Gαi (endogenous in HEK-293 cells) (human (endogenous in HEK-293)) (UniProt P63096)
UniProt P63096, sequence (P63096 whole entry): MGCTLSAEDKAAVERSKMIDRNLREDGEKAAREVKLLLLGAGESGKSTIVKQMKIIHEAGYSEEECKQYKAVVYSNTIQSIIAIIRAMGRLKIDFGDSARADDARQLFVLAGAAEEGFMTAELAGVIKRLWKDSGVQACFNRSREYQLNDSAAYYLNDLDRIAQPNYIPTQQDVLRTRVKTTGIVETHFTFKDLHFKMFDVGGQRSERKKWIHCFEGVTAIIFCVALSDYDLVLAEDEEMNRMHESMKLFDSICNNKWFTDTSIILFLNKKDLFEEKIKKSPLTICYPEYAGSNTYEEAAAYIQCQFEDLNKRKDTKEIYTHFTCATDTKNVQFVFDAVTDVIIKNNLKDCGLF

reduction in cAMP signaling in transiently transfected HEK-293 cells, 1 µM CPA with 10 μM forskolin, normalized to forskolin treated cells [%] | Molecule
72 | A1/A2AR chimera, untagged (plasmid ARJ195: pCEP4 A1/A2AR) (from UniProt P30542 1-290; P29274 291-412) (receptor)
67 | A1/A2AΔ316R truncated chimera, untagged (plasmid ARJ196: pCEP4 A1/A2AΔ316R) (from UniProt P30542 1-290; P29274 291-316) (receptor)
62 | A1R, untagged (plasmid ARJ194: pCEP4 A1R) (receptor) MPPSISAFQAAYIGIEVLIALVSVPGNVLVIWAVKVNQALRDATFCFIVSLAVADVAVGALVIPLAILINIGPQTYFHTCLMVACPVLILTQSSILALLAIAVDRYLRVKIPLRYKMVVTPRRAAVAIAGCWILSFVVGLTPMFGWNNLSAVERAWAANGSMGEPVIKCEFEKVISMEYMVYFNFFVWVLPPLLLMVLIYLEVFYLIRKQLNKKVSASSGDPQKYYGKELKIAKSLALILFLFALSWLPLHILNCITLFCPSCHKPSILTYIAIFLTHGNSAMNPIVYAFRIQKFRVTFLKIWNDHFRCQPAPPIDEDLPEERPDD

Reference: paper PMC7764039
